Reference: the supplement of paper PMC9112550, “Optimization of the antimicrobial peptide Bac7 by deep mutational scanning” (BMC Biology, 2022)

System: Escherichia coli TOP10
Assay: shrunken log2 fold change of peptide-encoding DNA abundance (4.5 h post-induction vs induction); higher = less antimicrobial activity (less host growth inhibition)
Details: time post-induction: 4.5 h; library: site-saturation at positions 5, 18, 19, 20
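Further: peptides expressed intracellularly from a pBAD plasmid library in pooled LB shake-flask culture, induced with 0.3% L-arabinose, DNA abundance read by NGS, three biological replicates, DESeq2 with apeglm shrinkage.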

| Sequence | shrunken log2 fold change |
| --- | --- |
| RRIRARPPRLPRPRPRPQGMPRP | 0.233 |
| RRIRDRPPRLPRPRPRPLAKPRP | 0.96 |
| RRIRNRPPRLPRPRPRPFGIPRP | -0.0138 |
| RRIRWRPPRLPRPRPRPCYTPRP | -0.382 |
| RRIRCRPPRLPRPRPRPHETPRP | -0.035 |
| RRIRFRPPRLPRPRPRPDGPPRP | 0.0689 |
| RRIRCRPPRLPRPRPRPIARPRP | 0.19 |
| RRIRKRPPRLPRPRPRPIFTPRP | 0.118 |
| RRIRMRPPRLPRPRPRPCGDPRP | 0.34 |
| RRIRPRPPRLPRPRPRPKFNPRP | -0.404 |
| RRIRFRPPRLPRPRPRPSCIPRP | -0.603 |
| RRIRKRPPRLPRPRPRPGVEPRP | 1.09 |
| RRIRIRPPRLPRPRPRPYHFPRP | -0.248 |
| RRIRSRPPRLPRPRPRPFKGPRP | 0.112 |
| RRIRVRPPRLPRPRPRPAQWPRP | 0.188 |
| RRIRCRPPRLPRPRPRPPCFPRP | 0.197 |
| RRIRRRPPRLPRPRPRPYFRPRP | -0.203 |
| RRIRIRPPRLPRPRPRPLDEPRP | -0.287 |
| RRIRKRPPRLPRPRPRPKSYPRP | -0.177 |
| RRIRGRPPRLPRPRPRPQISPRP | 0.259 |
| RRIRIRPPRLPRPRPRPPGFPRP | 0.195 |
| RRIRMRPPRLPRPRPRPDLFPRP | 0.803 |
| RRIRTRPPRLPRPRPRPDKIPRP | -0.172 |
| RRIRDRPPRLPRPRPRPQEDPRP | 0.399 |
| RRIRSRPPRLPRPRPRPFTNPRP | -0.0617 |

| Sequence | shrunken log2 fold change |
| --- | --- |
| RRIRIRPPRLPRPRPRPGVCPRP | 0.0702 |
| RRIRNRPPRLPRPRPRPPKNPRP | 0.196 |
| RRIRSRPPRLPRPRPRPEPPPRP | 0.662 |
| RRIRTRPPRLPRPRPRPVQNPRP | 0.138 |
| RRIRHRPPRLPRPRPRPDWVPRP | -0.0196 |
| RRIRRRPPRLPRPRPRPKTTPRP | 0.0923 |
| RRIRERPPRLPRPRPRPSTRPRP | -0.232 |
| RRIRCRPPRLPRPRPRPLLEPRP | 0.234 |
| RRIRARPPRLPRPRPRPNRCPRP | 0.0646 |
| RRIRIRPPRLPRPRPRPSASPRP | 0.0632 |
| RRIRQRPPRLPRPRPRPGTNPRP | -0.0906 |
| RRIRNRPPRLPRPRPRPALGPRP | -0.361 |
| RRIRVRPPRLPRPRPRPQTCPRP | -0.193 |
| RRIRRRPPRLPRPRPRPHAKPRP | 0.0278 |
| RRIRSRPPRLPRPRPRPDESPRP | -0.264 |
| RRIRCRPPRLPRPRPRPQAHPRP | -0.132 |
| RRIRRRPPRLPRPRPRPCDKPRP | -0.00163 |
| RRIRLRPPRLPRPRPRPFENPRP | -0.388 |
| RRIRQRPPRLPRPRPRPIFFPRP | -0.0319 |
| RRIRCRPPRLPRPRPRPGQHPRP | 0.00766 |
| RRIRFRPPRLPRPRPRPGLQPRP | -0.18 |
| RRIRGRPPRLPRPRPRPEDHPRP | 0.536 |
| RRIRPRPPRLPRPRPRPCMEPRP | -0.106 |
| RRIRRRPPRLPRPRPRPWTWPRP | -0.008 |
| RRIRQRPPRLPRPRPRPTWIPRP | -0.057 |
